The values that follow come from patent publication US10801046B2, “Methods and materials for biosynthesizing multifunctional, multivariate molecules via carbon chain modification” (INVISTA NORTH AMERICA S.A.R.L., priority 2016, dated 2020).

This assay relates to heptanedioyl-ACP methyl ester. Format: cell-based, Escherichia coli. The following applies: for impact on monomethyl heptanedioate production: 146 thioesterases screened; for monomethyl heptanedioate production: bioH deletion strain, TB supplemented with 1 mM IPTG and 2 mM L-rhamnose; for activity toward heptanedioyl-ACP methyl ester in vivo: top 150 hits screened in vivo.

B1: SEQ ID NO: 72: Terrisporobacter othiniensis thioesterase (protein, listed as Terrisporobacter othiniensis)
chain: MERVFTKEYEVTYRDTDARGECFLTSYMNFMADCGLSQDEKYGFVIADMVKENHTWMLVDYEITIYKYVKYKEKLRAITYIEGMNKFYAVRYFKIYNDKDDLILEGKTLVILVDSKKRRPLSIPDEHYKAYGVEEKTPTIGRNKLKLSKCKNVDYKKEFNVRYSDIDLNLHVGNVTYLGWILETIPFEIMTDYKIYSVKIKYQKELTYGDKVSVKTEMEYNDNNISAYHEIINESEEVVALLETHWNEI
In the case of B1, the “impact on monomethyl heptanedioate production” value (from here on “impact”) is “promising”, the monomethyl heptanedioate production is recorded as 48 mg/L and the “activity toward heptanedioyl-ACP methyl ester in vivo” value is reported as “showed activity toward heptanedioyl-ACP methyl ester”.

B2: FatB2: plant thioesterase FatB2 from Cuphea hookeriana, fatty acid acyl-ACP thioesterase, positive control (protein, listed as Cuphea hookeriana)
chain: MVAAAASSAFFPVPAPGASPKPGKFGNWPSSLSPSFKPKSIPNGGFQVKANDSAHPKANGSAVSLKSGSLNTQEDTSSSPPPRTFLHQLPDWSRLLTAITTVFVKSKRPDMHDRKSKRPDMLVDSFGLESTVQDGLVFRQSFSIRSYEIGTDRTASIETLMNHLQETSLNHCKSTGILLDGFGRTLEMCKRDLIWVVIKMQIKVNRYPAWGDTVEINTRFSRLGKIGMGRDWLISDCNTGEILVRATSAYAMMNQKTRRLSKLPYEVHQEIVPLFVDSPVIEDSDLKVHKFKVKTGDSIQKGLTPGWNDLDVNQHVSNVKYIGWILESMPTEVLETQELCSLALEYRRECGRDSVLESVTAMDPSKVGVRSQYQHLLRLEDGTAIVNGATEWRPKNAGANGAISTGKTSNGNSVS
Turning to B2, the “monomethyl heptanedioate production higher than the negative control” value was “about 10 mg/L” and the monomethyl heptanedioate production result is on record as “approximately 14 mg/L”.

B3: SEQ ID NO: 102: Peptoniphilus harei ACS-146-V-Sch2b thioesterase (protein)
chain: MKIFCKEYEVMNFLSSDGDLKLNHLVSYLIETSNYQSIDLGLSNEKLLDMGYTWMIYKWKIKINRYPRSYEKIKIKTWASGFKNINAFREFEVYCQGEKIIEASAIFLLIDVEKRKAIKIPEVLAEIYGNNGNRIFKSIERVNEPSELEIANRFSYKILRRDLDFNNHVNNSVYLELIYEAVTDEYTHVKFKDINVNYINELKLGDEIVIDFYREEDRFYFFFKSKDQSQIYARICGVSETPIS
modifications: Peptoniphilus harei ACS-146-V-Sch2b
notes: Peptoniphilus harei ACS-146-V-Sch2b thioesterase
With B3, the “impact” value was “promising” and the “activity toward heptanedioyl-ACP methyl ester in vivo” value was “showed activity toward heptanedioyl-ACP methyl ester”.

B4: SEQ ID NO: 74: Cellulosilyticum lentocellum thioesterase (protein, listed as Cellulosilyticum lentocellum)
chain: MSRLKENYQVDFDVVDFTGKLSINGLCSYMQTVAAKHATKLGINFYKNGEKPTYYWILSRVKYEIDTYPRWEDLVSLETYPGGYEKLFAVRLFDLTDEKGELIGRITGDYLLMDAEKGRPVRIKGATGPLSVLDFPYEGRKIDKIEVPEVVLREQIRKAYYSELDLNGHMNNAHYIRWTVDMLPLEVLKENEIVSLQINYNASITYGVETKLIIGKNEAGNYLVAGNSLDDSVNYFTSEIILRKNK
modifications: Cellulosilyticum lentocellum (strain ATCC 49066 / DSM 5427 / NCIMB 11756 / RHM5)
notes: Cellulosilyticum lentocellum thioesterase
As to B4, the “impact” value is recorded as “promising” and the “activity toward heptanedioyl-ACP methyl ester in vivo” value is recorded as “showed activity toward heptanedioyl-ACP methyl ester”.

B5: SEQ ID NO: 78: Opitutus terrae thioesterase (protein)
chain: MPEKLTLNASVLYADVDRTEVLLLRGVFKFLQEAAITHANQFDLGSRAMATRGESWVLNRMAVAVHRYPRYEETMRIETWSRGIKGFKGYREFRVFDAQGAPLFSGSSLWLYVNMRTKSIIRVPAELAAEFPKRDDGAFFPELESLEFAPPAADARRVPIAIRYSDVDVNAHVNNTAYLDFLQEALARAGLSPRPQSIRIKYARAIPAEAETVRVAIEPRGTGAAFAIEDHDTIFAIGEVD
modifications: Opitutus terrae (strain DSM 11246 / JCM 15787 / PB90-1)
notes: Opitutus terrae thioesterase
Regarding B5, the “activity toward heptanedioyl-ACP methyl ester in vivo” value is given as “showed activity toward heptanedioyl-ACP methyl ester”.
